Measured values reported in doi:10.1101/2023.04.17.536592.

Assays:
[1] = molecular target: H. sapiens nucleosome core particle (NCP) (human); assay: native gel or EMSA
[2] = molecular target: Kaposi's Sarcoma Herpesvirus Latency Associated Nuclear Antigen (LANA) peptide (Kaposi's Sarcoma Herpesvirus); assay: fluorescence polarisation
Kaposi's Sarcoma Herpesvirus Latency Associated Nuclear Antigen (LANA) peptide (Kaposi's Sarcoma Herpesvirus), sequence (Q9QR71 4-23): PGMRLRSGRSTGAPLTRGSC

Substance	Kd [1]	Kd [2]
GST-His-TEV-tagged PFV GAG (from UniProt P14349 535-550) (peptide)	3.5 µM	
H. sapiens nucleosome core particle (NCP) (complex)		2380 nM
